{
  "source": "the supplement of paper PMC9112550",
  "about": "“Optimization of the antimicrobial peptide Bac7 by deep mutational scanning” (BMC Biology, 2022);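 note: peptides expressed intracellularly from a pBAD plasmid library in pooled LB shake-flask culture, induced with 0.3% L-arabinose, DNA abundance read by NGS, three biological replicates, DESeq2 with apeglm shrinkage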",
  "data": [
    {"tested_on": "Escherichia coli TOP10", "experiment": "shrunken log2 fold change of peptide-encoding DNA abundance (4.5 h post-induction vs induction); higher = less antimicrobial activity (less host growth inhibition)", "conditions": "time post-induction: 4.5 h; library: site-saturation at positions 5, 18, 19, 20", "values": [
      {"sequence": "RRIRFRPPRLPRPRPRPAQYPRP", "shrunken log2 fold change": -0.574},
      {"sequence": "RRIRCRPPRLPRPRPRPCHWPRP", "shrunken log2 fold change": 0.0101},
      {"sequence": "RRIRFRPPRLPRPRPRPLEVPRP", "shrunken log2 fold change": 0.0238},
      {"sequence": "RRIRSRPPRLPRPRPRPPIKPRP", "shrunken log2 fold change": -0.221},
      {"sequence": "RRIRGRPPRLPRPRPRPYNYPRP", "shrunken log2 fold change": -0.129},
      {"sequence": "RRIRQRPPRLPRPRPRPWKMPRP", "shrunken log2 fold change": -0.112},
      {"sequence": "RRIRSRPPRLPRPRPRPFCIPRP", "shrunken log2 fold change": -0.316},
      {"sequence": "RRIRSRPPRLPRPRPRPEKRPRP", "shrunken log2 fold change": -0.0813},
      {"sequence": "RRIRYRPPRLPRPRPRPFCQPRP", "shrunken log2 fold change": 0.0155},
      {"sequence": "RRIRPRPPRLPRPRPRPQWHPRP", "shrunken log2 fold change": -0.176},
      {"sequence": "RRIRVRPPRLPRPRPRPYFFPRP", "shrunken log2 fold change": -0.512},
      {"sequence": "RRIRKRPPRLPRPRPRPCYMPRP", "shrunken log2 fold change": -0.195},
      {"sequence": "RRIRRRPPRLPRPRPRPLITPRP", "shrunken log2 fold change": -0.0767},
      {"sequence": "RRIRRRPPRLPRPRPRPNHNPRP", "shrunken log2 fold change": -0.329},
      {"sequence": "RRIRFRPPRLPRPRPRPLPSPRP", "shrunken log2 fold change": 0.0283},
      {"sequence": "RRIRNRPPRLPRPRPRPDAHPRP", "shrunken log2 fold change": 0.0677},
      {"sequence": "RRIRGRPPRLPRPRPRPMFAPRP", "shrunken log2 fold change": 1.57},
      {"sequence": "RRIRLRPPRLPRPRPRPGNWPRP", "shrunken log2 fold change": 0.0269},
      {"sequence": "RRIRGRPPRLPRPRPRPKRYPRP", "shrunken log2 fold change": 0.253},
      {"sequence": "RRIRERPPRLPRPRPRPESSPRP", "shrunken log2 fold change": -0.192},
      {"sequence": "RRIRVRPPRLPRPRPRPSTSPRP", "shrunken log2 fold change": -0.0898},
      {"sequence": "RRIRDRPPRLPRPRPRPHLFPRP", "shrunken log2 fold change": 0.00233},
      {"sequence": "RRIRYRPPRLPRPRPRPHGVPRP", "shrunken log2 fold change": -0.261},
      {"sequence": "RRIRGRPPRLPRPRPRPANPPRP", "shrunken log2 fold change": 0.476},
      {"sequence": "RRIRPRPPRLPRPRPRPWEWPRP", "shrunken log2 fold change": 0.0238},
      {"sequence": "RRIRFRPPRLPRPRPRPIHCPRP", "shrunken log2 fold change": -0.138},
      {"sequence": "RRIRIRPPRLPRPRPRPQHWPRP", "shrunken log2 fold change": 0.112},
      {"sequence": "RRIRKRPPRLPRPRPRPTTLPRP", "shrunken log2 fold change": 0.0155},
      {"sequence": "RRIRNRPPRLPRPRPRPSAQPRP", "shrunken log2 fold change": 0.147},
      {"sequence": "RRIRGRPPRLPRPRPRPAEEPRP", "shrunken log2 fold change": 1.15},
      {"sequence": "RRIRVRPPRLPRPRPRPQTMPRP", "shrunken log2 fold change": -0.689},
      {"sequence": "RRIRFRPPRLPRPRPRPQHYPRP", "shrunken log2 fold change": -1.01},
      {"sequence": "RRIRKRPPRLPRPRPRPYKKPRP", "shrunken log2 fold change": -0.201},
      {"sequence": "RRIRFRPPRLPRPRPRPAACPRP", "shrunken log2 fold change": 0.0906},
      {"sequence": "RRIRSRPPRLPRPRPRPIFCPRP", "shrunken log2 fold change": -0.0166},
      {"sequence": "RRIRDRPPRLPRPRPRPEDCPRP", "shrunken log2 fold change": -0.0123},
      {"sequence": "RRIRHRPPRLPRPRPRPLHGPRP", "shrunken log2 fold change": 0.00793},
      {"sequence": "RRIRGRPPRLPRPRPRPCFYPRP", "shrunken log2 fold change": 0.156},
      {"sequence": "RRIRERPPRLPRPRPRPPNTPRP", "shrunken log2 fold change": -0.284},
      {"sequence": "RRIRQRPPRLPRPRPRPVFLPRP", "shrunken log2 fold change": -0.218},
      {"sequence": "RRIRSRPPRLPRPRPRPWLLPRP", "shrunken log2 fold change": -0.337},
      {"sequence": "RRIRVRPPRLPRPRPRPVTEPRP", "shrunken log2 fold change": -0.164},
      {"sequence": "RRIRIRPPRLPRPRPRPQWRPRP", "shrunken log2 fold change": -0.191},
      {"sequence": "RRIRLRPPRLPRPRPRPTQDPRP", "shrunken log2 fold change": 0.488},
      {"sequence": "RRIRMRPPRLPRPRPRPMHTPRP", "shrunken log2 fold change": 3.3},
      {"sequence": "RRIRKRPPRLPRPRPRPWRRPRP", "shrunken log2 fold change": 0.0332},
      {"sequence": "RRIRFRPPRLPRPRPRPHNNPRP", "shrunken log2 fold change": -0.638},
      {"sequence": "RRIRGRPPRLPRPRPRPCTCPRP", "shrunken log2 fold change": 0.111},
      {"sequence": "RRIRLRPPRLPRPRPRPDVHPRP", "shrunken log2 fold change": -0.186},
      {"sequence": "RRIRSRPPRLPRPRPRPTLFPRP", "shrunken log2 fold change": 0.206},
      {"sequence": "RRIRLRPPRLPRPRPRPTYNPRP", "shrunken log2 fold change": -0.869},
      {"sequence": "RRIRPRPPRLPRPRPRPRQLPRP", "shrunken log2 fold change": 0.247},
      {"sequence": "RRIRRRPPRLPRPRPRPAMAPRP", "shrunken log2 fold change": 0.342},
      {"sequence": "RRIRTRPPRLPRPRPRPPMKPRP", "shrunken log2 fold change": -0.112},
      {"sequence": "RRIRRRPPRLPRPRPRPGMAPRP", "shrunken log2 fold change": 0.339},
      {"sequence": "RRIRHRPPRLPRPRPRPEMQPRP", "shrunken log2 fold change": -0.000952},
      {"sequence": "RRIRPRPPRLPRPRPRPPQDPRP", "shrunken log2 fold change": 0.523},
      {"sequence": "RRIRFRPPRLPRPRPRPKDKPRP", "shrunken log2 fold change": -0.223},
      {"sequence": "RRIRRRPPRLPRPRPRPTDLPRP", "shrunken log2 fold change": -0.162},
      {"sequence": "RRIRCRPPRLPRPRPRPRKYPRP", "shrunken log2 fold change": -0.458},
      {"sequence": "RRIRCRPPRLPRPRPRPPHGPRP", "shrunken log2 fold change": 0.499},
      {"sequence": "RRIRPRPPRLPRPRPRPWMNPRP", "shrunken log2 fold change": -0.0141},
      {"sequence": "RRIRVRPPRLPRPRPRPAQYPRP", "shrunken log2 fold change": -0.0437},
      {"sequence": "RRIRPRPPRLPRPRPRPRPFPRP", "shrunken log2 fold change": 0.248},
      {"sequence": "RRIRDRPPRLPRPRPRPTIHPRP", "shrunken log2 fold change": -0.128},
      {"sequence": "RRIRCRPPRLPRPRPRPGVQPRP", "shrunken log2 fold change": -0.419},
      {"sequence": "RRIRERPPRLPRPRPRPMLWPRP", "shrunken log2 fold change": -0.0445},
      {"sequence": "RRIRNRPPRLPRPRPRPYKSPRP", "shrunken log2 fold change": -0.00822},
      {"sequence": "RRIRCRPPRLPRPRPRPHKTPRP", "shrunken log2 fold change": -0.0871},
      {"sequence": "RRIRDRPPRLPRPRPRPEYGPRP", "shrunken log2 fold change": 0.305},
      {"sequence": "RRIRPRPPRLPRPRPRPIADPRP", "shrunken log2 fold change": 0.0705},
      {"sequence": "RRIRQRPPRLPRPRPRPDMVPRP", "shrunken log2 fold change": -0.0075},
      {"sequence": "RRIRDRPPRLPRPRPRPHIRPRP", "shrunken log2 fold change": 0.00704},
      {"sequence": "RRIRTRPPRLPRPRPRPAYFPRP", "shrunken log2 fold change": 0.0144},
      {"sequence": "RRIRFRPPRLPRPRPRPFMAPRP", "shrunken log2 fold change": -0.417}
    ]}
  ]
}
